Changes are numbered by the printed parent chain.

Experiment [1] addresses Zika virus (Asian strain, accession number KF993678) (Zika virus). The experiment can be described thus: cell-based or functional assay.
The target of experiment [2] is T1, Recombinant soluble E protein (0.8E-His) from DENV-3 (DENV-3, UniProt P27915 281-673).
The target of experiment [3] is T1, Recombinant soluble E protein …. The experiment can be described thus: SPR Biacore T200. (In general: In SPR one partner is held on a chip, and binding of the other changes the refractive index at the surface.)
Another experiment has as its target T2, human FcγRIIb (human, UniProt P31994 43-217).
T2 construct: also called human FcγR2b
T2 sequence: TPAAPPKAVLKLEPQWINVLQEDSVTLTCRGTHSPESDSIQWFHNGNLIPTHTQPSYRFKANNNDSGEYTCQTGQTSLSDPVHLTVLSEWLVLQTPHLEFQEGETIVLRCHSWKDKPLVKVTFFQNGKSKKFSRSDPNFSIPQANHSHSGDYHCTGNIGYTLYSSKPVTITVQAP
The experiment in a line: SPR (Biacore T200, pH 7.4): His-tagged FcγR captured, antibody alone or 1:1 immune complex with trimeric CD154 injected at 100 nM; response divided by capture level [d].

The next experiment concerns the target T3, mouse FcγRIV (mouse, UniProt A0A0B4J1G0 21-203).
T3 construct: also called mFcγRIV; mouse FcγR4
T3 sequence: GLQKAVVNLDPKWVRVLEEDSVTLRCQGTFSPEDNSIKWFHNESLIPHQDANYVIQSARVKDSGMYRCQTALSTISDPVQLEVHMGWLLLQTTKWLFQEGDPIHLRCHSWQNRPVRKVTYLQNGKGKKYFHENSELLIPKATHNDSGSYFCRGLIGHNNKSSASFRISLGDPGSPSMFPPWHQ
The experiment is described as above.

In a further experiment the target is T4, mouse FcγRIII (mouse, UniProt P08508 31-215).
T4 construct: also called mFcγRIII; mouse FcγR3
T4 chain: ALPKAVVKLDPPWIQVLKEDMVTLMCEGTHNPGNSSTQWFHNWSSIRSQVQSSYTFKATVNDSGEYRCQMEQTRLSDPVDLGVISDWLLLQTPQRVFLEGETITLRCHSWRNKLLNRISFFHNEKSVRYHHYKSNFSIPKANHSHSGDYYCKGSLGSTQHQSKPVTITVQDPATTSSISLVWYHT
The experiment in a line: SPR (Biacore T200, pH 7.4): His-tagged FcγR captured, antibody alone or 1:1 immune complex with trimeric CD154 injected at 100 nM; response divided by capture level [c].

In another experiment the target is T5, human FcγRIIIb (NA2) (human, UniProt O75015 17-200).
T5 construct: also called human FcγR3b allelic variant NA2
T5 chain: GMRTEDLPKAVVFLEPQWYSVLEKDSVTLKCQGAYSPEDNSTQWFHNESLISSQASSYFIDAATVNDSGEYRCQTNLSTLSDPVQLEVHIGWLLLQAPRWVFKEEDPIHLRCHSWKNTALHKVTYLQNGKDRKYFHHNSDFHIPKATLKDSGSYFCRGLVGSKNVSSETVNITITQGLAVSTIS
The experiment in a line: SPR (Biacore T200, pH 7.4): His-tagged FcγR captured, antibody alone or 1:1 immune complex with trimeric CD154 injected at 100 nM; response divided by capture level [h].

The target of another experiment is T6, human FcγRIIa (167R) (human, UniProt P12318 36-217).
T6 construct: also called human FcγR2a allelic variant 167R
T6 chain: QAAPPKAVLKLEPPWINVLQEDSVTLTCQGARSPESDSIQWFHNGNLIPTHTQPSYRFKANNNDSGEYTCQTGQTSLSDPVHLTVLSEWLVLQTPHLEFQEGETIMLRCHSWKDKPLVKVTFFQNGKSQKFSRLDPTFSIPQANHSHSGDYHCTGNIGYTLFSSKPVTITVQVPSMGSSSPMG
The experiment in a line: SPR (Biacore T200, pH 7.4): His-tagged FcγR captured, antibody alone or 1:1 immune complex with trimeric CD154 injected at 100 nM; response divided by capture level [c].

A further experiment concerns the target T7, mouse FcγRI (mouse, UniProt P26151 25-297).
T7 construct: also called mFcγRI; mouse FcγR1
T7 sequence: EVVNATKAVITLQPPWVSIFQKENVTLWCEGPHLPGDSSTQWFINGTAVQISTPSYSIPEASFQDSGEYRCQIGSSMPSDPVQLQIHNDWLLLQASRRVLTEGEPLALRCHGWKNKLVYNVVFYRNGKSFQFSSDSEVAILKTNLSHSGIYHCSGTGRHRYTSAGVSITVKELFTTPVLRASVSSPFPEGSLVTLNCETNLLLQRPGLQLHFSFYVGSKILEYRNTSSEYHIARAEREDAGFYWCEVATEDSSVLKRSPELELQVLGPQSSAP
The experiment can be described thus: SPR (Biacore T200, pH 7.4): His-tagged FcγR captured, antibody alone or 1:1 immune complex with trimeric CD154 injected at 100 nM; response divided by capture level [a].

The next experiment concerns the target T8, human FcγRIIIb (NA1) (human, UniProt O75015 17-200).
T8 construct: also called human FcγR3b allelic variant NA1
T8 chain: T5 chain with S20R, S49N, N66D, I90V
The experiment can be described thus: SPR (Biacore T200, pH 7.4): His-tagged FcγR captured, antibody alone or 1:1 immune complex with trimeric CD154 injected at 100 nM; response divided by capture level [g].

B1: DG_3CH1047-SG1106/3CL-SK1 (antibody)
heavy: QVQLVQSGPDVEKPGASVKVSCKASGYTFTSYYMHWVRQAPGQGLEWMGVINPRGGSRRSAQKFQGRITMTRDTSTSTVYMELSSLRSEDTAVYYCARGGEALFYDSYTTPFDGGSWWFDPWGQGSLVTVSSASTKGPSVFPLAPSSKSTSGGTAALGCLVKDYFPEPVTVSWNSGALTSGVHTFPAVLQSSGLYSLSSVVTVPSSSLGTQTYICNVNHKPSNTKVDKRVEPKSCDKTHTCPPCPAPEAAGGPSVFLFPPKPKDTLMISRTPEVTCVVVDVSHEDPEVKFNWYVDGVEVHNAKTKPREEQYNSTYRVVSVLTVLHQDWLNGKEYKCKVSNAALPAPISKTISKAKGQPREPQVYTLPPSREEMTKNQVSLTCLVKGFYPSDIAVEWESNGQPENNYKTTPPVLDSDGSFFLYSKLTVDKSRWQQGNVFSCSVLHEALHAHYTRKELSLSP
light: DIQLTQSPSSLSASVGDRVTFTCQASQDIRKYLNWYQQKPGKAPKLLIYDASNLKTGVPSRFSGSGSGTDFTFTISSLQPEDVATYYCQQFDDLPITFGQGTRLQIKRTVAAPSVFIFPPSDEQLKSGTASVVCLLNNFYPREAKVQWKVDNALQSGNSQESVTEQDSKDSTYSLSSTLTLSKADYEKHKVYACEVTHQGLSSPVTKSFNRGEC
Take B1: in experiment [1], the “EC50 (µg/mL), FRNT neutralization, Average” value stood at 0.63 µg/mL; the “EC50 (µg/mL), FRNT neutralization, Expt 1” value was 0.33 µg/mL; the “EC50 (µg/mL), FRNT neutralization, Expt 2” value came out at 0.93 µg/mL.

B2: DG_3CH-SG182/3CL-SK1 (antibody, V domains shown)
VH: QVQLVQSGPDVEKPGASVKVSCKASGYTFTSNYIHWVRQAPGQGLEWMGVINPRGGSTASAQKFQGRITMTRDTSTSTVYMELSSLRSDDTAVYYCARGGRALFYDSYTTPRDGGSWWFDPWGQGSLVTVSS
VL: DIQLTQSPSSLSASVGDRVTFTCQASQDIRKYLNWYQQKPGKAPKLLIYDASNLKTGVPSRFSGSGSGTDFTFTISSLQPEDVATYYCQQFDDLPITFGQGTRLQIKR
In the case of B2, the Kd in experiment [2] stood at 6.35 nM.

B3: DG_3CH987-SG182/3CL-SK1 (antibody, V domains shown)
VH: B2 VH with N32Y, T58R, A59R, D89E, R112F
VL: B2 VL
Regarding B3, the dissociation constant (Kd) in experiment [2] came out at 0.000988 nM.

B4: DG_3CH953-SG182/3CL499-SK1 (antibody, human IgG1, kappa, V domains shown)
VH: B2 VH with T58R, A59R, D89E, R112F
VL: B2 VL with T56F, D93A
Turning to B4, in experiment [3], the binding result is “binds”.

B5: Anti-CD154 antibody with Fc variant LALA + KAES (SG1095) (antibody, human IgG1, kappa, L234A L235A)
heavy: EVQLVESGGGSVKPGGSLKLSCAASGFTFSDHYMYWVRQTPEKRLEWVAIISGGGSYTSYPDSMKGRFTISRDNAKNILHLQMSSLKSEDTAMYYCTRESNGKPGFAYWGQGTLVTVSAASTKGPSVFPLAPSSKSTSGGTAALGCLVKDYFPEPVTVSWNSGALTSGVHTFPAVLQSSGLYSLSSVVTVPSSSLGTQTYICNVNHKPSNTKVDKRVEPKSCDKTHTCPPCPAPEAAGGPSVFLFPPKPKDTLMISRTPEVTCVVVDVSHEDPEVKFNWYVDGVEVHNAKTKPREEQYNSTYRVVSVLTVLHQDWLNGKEYKCKVSNAALPAPISKTISKAKGQPREPQVYTLPPSREEMTKNQVSLTCLVKGFYPSDIAVEWESNGQPENNYKTTPPVLDSDGSFFLYSKLTVDKSRWQQGNVFSCSVMHEALHNHYTQKSLSLSP
light: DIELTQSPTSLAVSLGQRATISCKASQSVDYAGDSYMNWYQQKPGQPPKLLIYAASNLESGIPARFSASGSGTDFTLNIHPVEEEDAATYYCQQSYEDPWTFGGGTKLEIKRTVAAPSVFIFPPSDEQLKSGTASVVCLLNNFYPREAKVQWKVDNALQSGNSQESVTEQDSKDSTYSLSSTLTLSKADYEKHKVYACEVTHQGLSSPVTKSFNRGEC
For the molecule B5, the binding result in the experiment with human FcγRIIb, in the experiment with mouse FcγRIV, with mouse FcγRIII, with human FcγRIIIb (NA2), in the experiment with human FcγRIIa (167R) and with mouse FcγRI was “no binding (tested: 100 nM)” in each case. In the experiment with human FcγRIIIb (NA1), the binding result is given as “no binding (tested: 100 nM)”.

B6: Anti-CD154 antibody with Fc variant LALA + KWES (SG1088) (antibody, human IgG1, kappa, L234A L235A)
heavy: B5 heavy with A328W
light: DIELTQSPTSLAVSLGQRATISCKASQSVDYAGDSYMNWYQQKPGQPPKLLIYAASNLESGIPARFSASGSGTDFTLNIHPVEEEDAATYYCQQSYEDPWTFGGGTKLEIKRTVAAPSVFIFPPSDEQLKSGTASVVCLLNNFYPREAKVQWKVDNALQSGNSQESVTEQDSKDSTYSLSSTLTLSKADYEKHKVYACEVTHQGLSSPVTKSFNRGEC
In the case of B6, the binding result in the experiment with human FcγRIIb, in the experiment with mouse FcγRIV, with human FcγRIIIb (NA2) and with human FcγRIIIb (NA1) was “no binding (tested: 100 nM)” each time.

As usually defined, the Kd is a measure of binding affinity in units of concentration.

(Values after patent US20240190948A1 (Chugai, published 2024).)
